{"source": "patent US20230357364A1", "biological_target": "SARS-CoV-1 RBD (RBD-1) (SARS-CoV-1)", "test": "ELISA", "conditions": "remark: other sources report otherwise"}
{"binder": "L12.bP11A06 (antibody, V domains shown) VH: EVQLVESGGGLIQPGGSLRLSCAASGLTVSSNYMSWVRQAPGKGLEWVSVIYSGGSTFYADSVKGRFTISRDNSKNTLYLQMNSLRAEDTAVYYCARDLDVYGLDVWGQGTTVTVSS VL: DIVMTQSPSFLSASVGDRVTITCRASQGISSYLAWYQQKPGKAPKLLIYAASTLQSGVPSRFSGSGSGTEFTLTISSLQPEDFATYYCQQLNSYPPKFTFGPGTKVEIK", "values": [{"measurement": "EC50", "result": "> 50", "unit": "µg/mL"}]}
